Earlier results in article PMC8405992.
Like-named read-outs stand apart in the source and are kept apart here.

Experiments:
[1] = molecular target: Ubp6 UBL (Saccharomyces cerevisiae) (UniProt P43593)
[2] = molecular target: Dsk2 UBL (Saccharomyces cerevisiae) (UniProt P48510)
[3] = molecular target: Ubp6 UBL (Saccharomyces cerevisiae) (UniProt P43593); remark: listed apart in the source
[4] = molecular target: Dsk2 UBL (Saccharomyces cerevisiae) (UniProt P48510); remark: listed apart in the source
[5] = molecular target: Rad23 UBL (Saccharomyces cerevisiae) (UniProt P32628)
Rad23 UBL (Saccharomyces cerevisiae), sequence (P32628 1-77): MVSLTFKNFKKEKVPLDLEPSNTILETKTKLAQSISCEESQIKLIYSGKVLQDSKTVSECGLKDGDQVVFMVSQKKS

[6] = molecular target: Rad23-UBL UBL (Saccharomyces cerevisiae) (UniProt P32628)
Rad23-UBL UBL (Saccharomyces cerevisiae), sequence (P32628 1-77): as above

Rpn1, sequence (P38764 2-993): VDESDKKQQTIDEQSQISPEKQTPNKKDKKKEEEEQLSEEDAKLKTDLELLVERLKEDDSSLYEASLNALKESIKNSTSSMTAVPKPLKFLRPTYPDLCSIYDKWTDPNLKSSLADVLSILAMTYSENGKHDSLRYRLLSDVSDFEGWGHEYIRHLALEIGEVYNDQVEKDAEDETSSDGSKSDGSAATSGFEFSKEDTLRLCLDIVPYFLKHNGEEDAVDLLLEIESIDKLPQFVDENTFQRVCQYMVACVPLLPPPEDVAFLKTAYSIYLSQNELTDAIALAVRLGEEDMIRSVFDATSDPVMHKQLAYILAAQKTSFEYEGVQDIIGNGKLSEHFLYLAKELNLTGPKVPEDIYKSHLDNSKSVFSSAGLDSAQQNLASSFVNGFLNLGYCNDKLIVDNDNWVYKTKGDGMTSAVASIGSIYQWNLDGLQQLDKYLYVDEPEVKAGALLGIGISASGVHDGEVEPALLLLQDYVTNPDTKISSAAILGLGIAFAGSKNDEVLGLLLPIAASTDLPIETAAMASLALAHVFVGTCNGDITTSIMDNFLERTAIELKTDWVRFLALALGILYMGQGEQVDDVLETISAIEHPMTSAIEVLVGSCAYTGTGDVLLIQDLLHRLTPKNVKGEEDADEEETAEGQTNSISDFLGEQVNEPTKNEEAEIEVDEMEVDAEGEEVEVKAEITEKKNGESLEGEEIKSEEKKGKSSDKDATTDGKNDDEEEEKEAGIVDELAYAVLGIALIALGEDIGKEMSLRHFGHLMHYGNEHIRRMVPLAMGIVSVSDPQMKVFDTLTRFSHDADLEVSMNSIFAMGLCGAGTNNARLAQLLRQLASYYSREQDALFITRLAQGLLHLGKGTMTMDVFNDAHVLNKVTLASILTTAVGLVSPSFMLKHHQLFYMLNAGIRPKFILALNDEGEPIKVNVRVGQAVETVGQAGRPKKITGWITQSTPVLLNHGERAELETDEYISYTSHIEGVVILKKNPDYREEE
Dsk2 UBL (Saccharomyces cerevisiae), sequence (P48510 1-76): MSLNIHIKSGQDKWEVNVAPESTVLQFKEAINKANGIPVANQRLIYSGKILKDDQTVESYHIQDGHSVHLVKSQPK
Ubp6 UBL (Saccharomyces cerevisiae), sequence (P43593 6-80): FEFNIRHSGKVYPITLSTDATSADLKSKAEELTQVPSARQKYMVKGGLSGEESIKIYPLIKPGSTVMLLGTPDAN
Rpn1 391-642, sequence (P38764 391-642): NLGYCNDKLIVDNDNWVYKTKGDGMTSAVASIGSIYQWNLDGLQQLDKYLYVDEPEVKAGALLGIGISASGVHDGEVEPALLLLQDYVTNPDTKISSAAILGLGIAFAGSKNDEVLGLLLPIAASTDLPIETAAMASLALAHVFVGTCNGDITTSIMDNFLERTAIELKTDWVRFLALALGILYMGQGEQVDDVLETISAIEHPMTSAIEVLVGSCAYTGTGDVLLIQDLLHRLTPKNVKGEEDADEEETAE

Rpn1 391-642 (from UniProt P38764)
Kd [1]: 40 µM
Kd [2]: 22 µM

Rpn1 (from UniProt P38764)
Kd [3]: 2 µM
Kd [4]: 12 µM

Rpn1 T1 site (from UniProt P38764)
Kd [5]: 0.064 µM
Kd [6]: 0.064 µM
